Data taken from article PMC10031235 (Protein Science : A Publication of the Protein Society, 2023).

Biological target: the molecule itself
Test: SEC; size-exclusion chromatography of purified PSAT in solution (Figure S7); conditions not shown

B1: human phosphoserine aminotransferase (PSAT-β) (enzyme)
chain: MDAPRQVVNFGPGPAKLPHSVLLEIQKELLDYKGVGISVLEMSHRSSDFAKIINNTENLVRELLAVPDNYKVIFLQGGGCGQFSAVPLNLIGLKAGRCADYVVTGAWSAKAAEEAKKFGTINIVHPKLGSYTKIPDPSTWNLNPDASYVYYCANETVHGVEFDFIPDVKGAVLVCDMSSNFLSKPVDVSKFGVIFAGAQKNVGSAGVTVVIVRDDLLGFALRECPSVLEYKVQAGNSSLYNTPPCFSIYVMGLVLEWIKNNGGAAAMEKLSSIKSQTIYEIIDNSQGFYVCPVEPQNRSKMNIPFRIGNAKGDDALEKRFLDKALELNMLSLKGHRSVGGIRASLYNAVTIEDVQKLAAFMKKFLEMHQL
modifications: pyridoxal 5'-phosphate covalently bound to Lys200 (internal aldimine); pyridoxamine phosphate in place of PLP in some chains
notes: human phosphoserine aminotransferase, PSAT1 (PSAT-β), wild type, EC 2.6.1.52; gene coding for human PSAT-β cloned in a modified pET28b; electron density continuous from residue 6 to 370; also called PSAT1; human PSAT; source: E. coli BL21(DE3) tuner, purified (IMAC Talon; Superdex 75 before crystallization)
- stoichiometry N: 2
